Sequences and labels used below:
B1: wild type RNase J, BACTH fusions (pUT18 and pKNT25) [Helicobacter pylori] / wild type RNase J, BACTH fusions (pUT18 and pKNT25) [Helicobacter pylori] (parent)
chain 1: MTDNNQNNENHENSSENSKADEMRAGAFERFTNRKKRFRENAQKNAEYSNHEASSHHKKEHRPNKKPNNHHKQKHAKTRNYAQEELDSNKVEGVTEILHVNERGTLGFHKELKKGVEANNKIQVEHLNPHYKMNLNSKASVKITPLGGLGEIGGNMMVIETPKSAIVIDAGMSFPKEGLFGVDILIPDFSYLHQIKDKIAGIIITHAHEDHIGATPYLFKELQFPLYGTPLSLGLIGSKFDEHGLKKYRSYFKIVEKRCPISVGEFIIEWIHITHSIIDSSALAIQTKAGTIIHTGDFKIDHTPVDNLPTDLYRLAHYGEKGVMLLLSDSTNSHKSGTTPSESTIAPAFDTLFKEAQGRVIMSTFSSNIHRVYQAIQYGIKYNRKIAVIGRSMEKNLDIARELGYIHLPYQSFIEANEVAKYPDNEILIVTTGSQGETMSALYRMATDEHRHISIKPNDLVIISAKAIPGNEASVSAVLNFLIKKEAKVAYQEFDNIHVSGHAAQEEQKLMLRLIKPKFFLPVHGEYNHVARHKQTAISCGVPEKNIYLMEDGDQVEVGPAFIKKVGTIKSGKSYVDNQSNLSIDTSIVQQREEVASAGVFVATIFVNKNKQALLESSQFSSLGLVGFKDEKPLIKEIQGGLEVLLKSSNAEILNNPKKLEDHTRNFIRKALFKKFRKYPAIICHAHSF
chain 2: B1 chain 1

Variants of B1 are the subject of this experiment. Description: BACTH (bacterial two hybrid), beta-galactosidase read-out. The note with it: with wild type RNase J, in E. coli, RNJ WT on pUT18, mutant on pKNT25, n ≥ 6, parent: 430, read off a plot.
chain 1 E616A: the response was 220 Miller units.
Consider chain 1 K647A, for which the response stood at 130 Miller units.
Take chain 1 K658A: the response came out at 220 Miller units.
With chain 1 E594A, the response is 440 Miller units.
Turning to chain 1 E593A, the response turned out to be 520 Miller units.
As for chain 1 K609A, the response turned out to be 500 Miller units.
Consider chain 1 E661A, for which the response was 180 Miller units.
Then chain 1 E652A, with 210 Miller units.
With chain 1 K632A, the response is 380 Miller units.

Source of the values: article PMC10700544.
